# From patent US11918683B2, “Treatment of immune diseases by administration of antigen-specific formulations” (Allero Therapeutics B.V., priority 2017, dated 2024)
# Ends that are not written are not given here.
# B1: OVA: intact, LPS-free OVA grade V protein (ovalbumin) used as antigen (protein, UniProt P01012 2-386, looked up)
# Ovalbumin: GSIGAASMEFCFDVFKELKVHHANENIFYCPIAIMSALAMVYLGAKDSTRTQINKVVRFDKLPGFGDSIEAQCGTSVNVHSSLRDILNQITKPNDVYSFSLASRLYAEERYPILPEYLQCVKELYRGGLEPINFQTAADQARELINSWVESQTNGIIRNVLQPSSVDSQTAMVLVNAIVFKGLWEKAFKDEDTQAMPFRVTEQESKPVQMMYQIGLFRVASMASEKMKILELPFASGTMSMLVLLPDEVSGLEQLESIINFEKLTEWTSSNVMEERKIKVYLPRMKMEEKYNLTSVLMAMGITDVFSSSANLSGISSAESLKISQAVHAAHAEINEAGREVVGSAEAGVDAASVSEEFRADHPFLFCIKHIATNAVLFFGRCVSP
# B2: Ovm: Ovm protein (ovomucoid) used as antigen (protein, UniProt P01005 25-210, looked up)
# Ovomucoid: AEVDCSRFPNATDKEGKDVLVCNKDLRPICGTDGVTYTNDCLLCAYSIEFGTNISKEHDGECKETVPMNCSSYANTTSEDGKVMVLCNRAFNPVCGTDGVTYDNECLLCAHKVEQGASVDKRHDGGCRKELAAVSVDCSEYPKPDCTAEDRPLCGSDNKTYGNKCNFCNAVVESNGTLTLSHFGKC
# Experiments:
# [1] = test system: NOD AB° DQ8 transgenic mice; assay: Antigen-specific DTH response (ear swelling) after SLIT; format: in vivo; conditions: 10 μg DQ8d in ear, 24 hours, compared to PBS
# Foxp3 = Foxp3 expression within CD4+ T cell population by FACS; format: cell-based, NOD AB° DQ8 transgenic mice; conditions: spleen
# Description: Flow cytometric analysis: spleens and cervical lymph node tissue of SLIT treated mice were isolated, prepared as described above and stained for CD4, CD25 and Foxp3. Intracellular staining was performed for Foxp3 according to the manufacturer's instructions (eBiosciences) and subsequently measured using flow cytometry on a Becton Dickinson FACSCaliburs. Cells were gated on CD4^+CD25^+ and CD4^+CD25^− subpopulations and within these populations Foxp3 histograms were used to determine Mean Fluorescence Intensity (MFI).
# T-cell phenotyping: CD4 and CD25 antibodies were purchased from BD Biosciences, and APC anti-Foxp3 staining kits were purchased from eBiosciences. Anti-IL-10 neutralizing monoclonal antibody (1 μg/mL, clone JES052A5), TGF-β neutralizing monoclonal antibody (1 μg/mL, clone 1D11) and LAP (latency associated peptide) neutralizing antibodies (1 μg/mL, clone 27235) were obtained from R&D systems.
# [2] = test system: OVA- or Ovm-sensitized piglets; assay: Piglet food allergy model, oromucosal PSF patch treatment; format: in vivo, Landrace-Yorkshire piglets; conditions: oromucosal once weekly for 6 weeks
# [3] = test system: OVA- or HDM-sensitized mice; assay: Sublingual immunotherapy (SLIT) mouse model; format: in vivo, BALB/cByJ mice; conditions: sublingual 5 days a week for 8 weeks
# Description: Antigen: naturally purified Der p1 and 2 in a 50:1 ratio was purchased from Citeq or intact, LPS-free OVA grade V protein (Sigma Aldrich) was used as antigen in all experiments. Animals: BALB/cByJ mice were purchased from Charles River Laboratories at an age of 6 to 8 weeks and housed in individually ventilated cages (IVC). Sensitization of mice: all mice received intraperinoneal injections on day 1 and 15 of 5 μg crude extract […]) or 25 μg OVA adsorbed to 2.25 mg Alum (Imject, Pierce) in 100 μL PBS. […] Hereafter, airway responsiveness was determined, and bronchoalveolar lavage fluid (BALF), lungs, and blood were collected and stored for analyses. Measurement of airway hyperreactivity to methacholine: airway hyperresponsiveness (AHR) was assessed by measuring airway resistance (R in cmH2O.s/mL) and lung compliance (C in mL/H2O) in response to intravenous administration of increasing doses of methacholine (Sigma-Aldrich). The AHR was expressed as the effective dose of methacholine required to induce a R of 3 cmH2O.s/mL (ED3). […] ELISA determined the concentrations of IL-5, IL-10, IL-13 and IFN-γ, according to the manufacturer's instructions (BD Pharmingen). […]
Molecule,DTH response (ear swelling) [1],number of Foxp3 CD4+ T cells (Foxp3),AHR [2],AHR [3]
deaminated DQ8d peptide GAPVPYPDPLEPRQYPSGEGSFQPSQENPQA (also: deaminated (sites not given here)) [deaminated gliadin peptide antigen],slight reduction,did not show a significant increase,,
B1,,,only a moderate effect,only a moderate effect
B2,,,only a moderate effect,
